Test results taken from publication PMC10724965, “FRIZZLE PANICLE (FZP) regulates rice spikelets development through modulating cytokinin metabolism”.

Molecular target: MBP-FZP (Oryza sativa, UniProt Q8H3Q1 1-318)
Experiment: EMSA; 5 nmol protein, 2 nmol probe (so in the source); shift substantially weakened by excess unlabeled probe; EMSA: 10 uL, 2 uL 5x EMSA/Gel-shift binding buffer (Beyotime?), 5 nmol protein, 2 nmol biotin-labeled probe; salt, pH and temperature not given
Settings: protein: recombinant; tags: MBP (pMAL-c2x); label: biotin; blunt

Sequence of MBP-FZP (Q8H3Q1 whole entry): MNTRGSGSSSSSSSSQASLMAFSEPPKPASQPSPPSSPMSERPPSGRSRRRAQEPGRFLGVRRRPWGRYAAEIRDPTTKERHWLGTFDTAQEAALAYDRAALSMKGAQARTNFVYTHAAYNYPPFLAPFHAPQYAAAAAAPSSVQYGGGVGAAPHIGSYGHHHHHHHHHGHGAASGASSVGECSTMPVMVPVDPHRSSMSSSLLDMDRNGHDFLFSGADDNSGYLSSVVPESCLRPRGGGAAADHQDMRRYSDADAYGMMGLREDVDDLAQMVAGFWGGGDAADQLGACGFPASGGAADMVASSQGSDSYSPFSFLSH

B1: EMSA-DST-probe (GCC-box, DST promoter) (dsDNA)
DNA 1: GCACAAGACCCGCAGGCCCAATGGCGAGCCGCCACGTGTACCCGCGCCTCCCCTCCCCGGCC
DNA 2: GGCCGGGGAGGGGAGGCGCGGGTACACGTGGCGGCTCGCCATTGGGCCTGCGGGTCTTGTGC
binding result: binds
